Source: FireProtDB (doi:10.1074/jbc.272.30.18686)

B1: Ribonuclease HI, P0A7Y4 (parent)
chain: MLKQVEIFTDGSCLGNPGPGGYGAILRYRGREKTFSAGYTRTTNNRMELMAAIVALEALKEHCEVILSTDSQYVRQGITQWIHNWKKRGWKTADKKPVKNVDLWQRLDAALGQHQIKWEWVKGHAGHPENERCDELARAAAMNPTLEDTGYQVEV

Variants of: B1
Settings: Escherichia coli (strain K12), pH 3.2, Thermal, CD, glycine-HCl 10 mM, reversible: yes, structure 2RN2, whole UniProt chain shown; for ddG of mutation (higher = less stable): 53 °C

Variant | ddG of mutation (higher = less stable) [kcal/mol] | Tm [°C] | change of melting temperature, mutant - wild type (higher = more stable) [°C] | unfolding enthalpy (van 't Hoff) [kcal/mol]
A52V V74L | -2.43 | 61 | 8.07 | 126
A52V V74A | 0.52 | 51.3 | -1.7 | 107
A52I V74A | -1.19 | 56.9 | 3.9 | 102
A52I V74L | -1.19 | 56.9 | 3.9 | 122
A52L V74A | -0.36 | 54.2 | 1.2 | 105
A52L V74L | -1.49 | 57.9 | 4.9 | 118
A52G V74L | 1.4 | 48.4 | -4.6 | 97.8
A52L | -1.3 |  |  | 
A52Y | 2.3 | 45.4 | -7.6 | 70.8
A52D | 1.9 |  |  | 
A52C | -0.8 | 55.5 | 2.5 | 128
A52I | -1.9 | 59.2 | 6.2 | 84.8
A52Q | 1.2 | 49.1 | -3.9 | 90.3
A52F |  | 51.5 | -1.5 | 89
A52S | 1.8 | 47.2 | -5.8 | 118
A52N | 1.8 | 47.1 | -5.9 | 95.6
A52P | 1.6 | 47.6 | -5.4 | 93
A52K | 5.9 | 33.5 | -19.5 | 70.8
A52V | -1.7 | 58.5 | 5.5 | 128
A52T | 0.8 | 50.3 | -2.7 | 108
A52M | -0.5 | 54.6 | 1.6 | 112
A52E | 1.5 |  |  | 
A52H |  | 41.2 | -11.8 | 84.7
A52G |  | 44.1 | -8.9 | 91
A52F V74A |  | 48.4 | -4.6 | 85.8
A52F V74L | -0.03 | 53.1 | 0.1 | 99.8
